As usually defined, the Kd is a measure of binding affinity in units of concentration. Read a high Kd as weaker binding.

The target in assay [1] is T1, human FcgRIIb (human).
T1 chain: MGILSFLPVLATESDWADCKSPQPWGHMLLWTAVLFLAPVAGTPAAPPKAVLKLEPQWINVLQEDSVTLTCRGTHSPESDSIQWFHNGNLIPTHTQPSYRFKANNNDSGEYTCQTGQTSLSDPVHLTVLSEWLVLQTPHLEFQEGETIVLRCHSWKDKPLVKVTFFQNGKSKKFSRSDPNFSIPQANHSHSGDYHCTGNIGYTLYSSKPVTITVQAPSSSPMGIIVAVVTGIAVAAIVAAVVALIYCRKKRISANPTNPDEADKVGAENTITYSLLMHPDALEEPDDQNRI
Briefly: SPR. In general terms: Surface plasmon resonance follows binding to a sensor surface in real time, without labels.

Assay [2] concerns the target T1, human FcgRIIb. In words: SPR.
Assay [3] has as its target T2, human FcgRIIa(R) (human).
T2 chain: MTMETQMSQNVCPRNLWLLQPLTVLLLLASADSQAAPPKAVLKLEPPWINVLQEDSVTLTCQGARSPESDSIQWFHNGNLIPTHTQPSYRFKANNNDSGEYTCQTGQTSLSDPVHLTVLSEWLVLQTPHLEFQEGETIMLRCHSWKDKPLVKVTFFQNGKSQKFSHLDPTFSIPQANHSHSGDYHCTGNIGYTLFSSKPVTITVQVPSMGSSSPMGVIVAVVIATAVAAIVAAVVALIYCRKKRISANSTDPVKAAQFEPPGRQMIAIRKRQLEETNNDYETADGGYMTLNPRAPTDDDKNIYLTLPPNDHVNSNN
In words: SPR.

Assay [4] has as its target T1, human FcgRIIb. In words: SPR.
Assay [5] concerns the target human FcgRIIIa(V) (human). Briefly: SPR.
Assay [6] addresses T2, human FcgRIIa(R). In words: SPR.
The target of assay [7] is T3, human FcgRIIa(H) (human).
T3 chain: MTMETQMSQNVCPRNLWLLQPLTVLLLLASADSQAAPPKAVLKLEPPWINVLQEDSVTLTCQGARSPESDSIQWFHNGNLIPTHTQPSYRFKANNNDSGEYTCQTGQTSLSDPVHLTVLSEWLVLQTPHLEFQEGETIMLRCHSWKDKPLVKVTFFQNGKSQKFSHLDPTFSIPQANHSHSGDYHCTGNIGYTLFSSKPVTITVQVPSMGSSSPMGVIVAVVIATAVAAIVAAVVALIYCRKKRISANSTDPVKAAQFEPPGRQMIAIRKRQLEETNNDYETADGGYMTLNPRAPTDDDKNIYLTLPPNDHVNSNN
Briefly: SPR.

The target of assay [8] is T1, human FcgRIIb. In words: SPR.
For assay [9], the target named is human FcgRIIIa(V) (human). Briefly: SPR. The source holds these as a separate data set.
Assay [10] has as its target human FcgRIIIa(V) (human). Briefly: SPR. This is another data set of the same source.
For assay [11], the target named is T3, human FcgRIIa(H). In words: SPR.
The target in assay [12] is T1, human FcgRIIb. In words: SPR.
Assay [13] deals with human FcgRIa (human). Briefly: SPR.
The target of assay [14] is T2, human FcgRIIa(R). Briefly: SPR.
Assay [15] has as its target T3, human FcgRIIa(H). Briefly: SPR.
Assay [16] deals with human FcgRIa (human). Briefly: SPR. The source holds these as a separate data set.
Assay [17] concerns the target human FcgRIa (human). Briefly: SPR. This is another data set of the same source.
Assay [18] has as its target human FcRn (with beta2-microglobulin) (human). Briefly: SPR, pH 7.0.
The target is the same in assay [19]. Briefly: SPR, pH 7.0. This is another data set of the same source.
Assay [20] has the same target. Briefly: SPR, pH 7.0. The source holds these as a separate data set.
The target is the same in assay [21]. Briefly: SPR, pH 7.0. The source holds these as a separate data set.
Assay [22] has the same target. Briefly: SPR, pH 7.0. This is another data set of the same source.
In assay [23] the target is T4, human IL-6 receptor (human).
T4 chain: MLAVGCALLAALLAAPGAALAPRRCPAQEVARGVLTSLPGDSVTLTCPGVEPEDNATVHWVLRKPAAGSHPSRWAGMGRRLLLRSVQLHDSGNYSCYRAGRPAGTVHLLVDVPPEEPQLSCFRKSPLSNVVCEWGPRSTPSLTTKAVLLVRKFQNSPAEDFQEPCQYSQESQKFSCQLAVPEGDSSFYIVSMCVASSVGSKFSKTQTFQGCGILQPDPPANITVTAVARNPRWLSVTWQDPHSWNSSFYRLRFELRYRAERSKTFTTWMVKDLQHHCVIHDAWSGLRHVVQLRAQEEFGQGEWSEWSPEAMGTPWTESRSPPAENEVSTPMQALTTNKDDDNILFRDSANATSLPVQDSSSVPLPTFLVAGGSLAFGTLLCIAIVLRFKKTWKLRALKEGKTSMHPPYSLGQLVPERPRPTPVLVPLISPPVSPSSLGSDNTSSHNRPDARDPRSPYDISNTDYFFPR
Briefly: SPR, 3 uM CaCl2, 37C.

Assay [24] concerns the target T4, human IL-6 receptor. Briefly: SPR, 3 uM CaCl2, 37C.
Assay [25] has as its target human FcRn (with beta2-microglobulin) (human). In words: SPR, pH 7.0. The source holds these as a separate data set.

Like-named read-outs stand apart in the source and are kept apart here. Where only a bound is given, the exact number is not on record here.

human FcgRIIIa(V) (human), sequence (chain, as listed by the source): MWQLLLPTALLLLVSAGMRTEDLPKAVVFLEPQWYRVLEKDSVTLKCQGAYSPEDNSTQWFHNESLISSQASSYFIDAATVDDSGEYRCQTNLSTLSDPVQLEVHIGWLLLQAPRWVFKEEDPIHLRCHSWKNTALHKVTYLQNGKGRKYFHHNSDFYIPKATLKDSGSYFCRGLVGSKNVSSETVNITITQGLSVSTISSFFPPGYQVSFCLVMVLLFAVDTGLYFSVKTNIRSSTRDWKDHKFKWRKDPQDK
human FcgRIa (human), sequence (chain, as listed by the source): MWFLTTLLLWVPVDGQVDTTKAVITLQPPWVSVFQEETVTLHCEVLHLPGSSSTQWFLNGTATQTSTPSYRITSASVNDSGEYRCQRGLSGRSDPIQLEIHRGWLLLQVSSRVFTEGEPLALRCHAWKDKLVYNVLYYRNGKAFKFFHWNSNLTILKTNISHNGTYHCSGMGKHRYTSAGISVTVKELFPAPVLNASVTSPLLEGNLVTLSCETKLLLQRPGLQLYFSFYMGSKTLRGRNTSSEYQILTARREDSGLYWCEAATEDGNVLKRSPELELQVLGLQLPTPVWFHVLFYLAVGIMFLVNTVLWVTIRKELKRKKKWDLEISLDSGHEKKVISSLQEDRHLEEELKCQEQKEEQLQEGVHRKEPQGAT
human FcRn (with beta2-microglobulin) (human), sequence (chain, as listed by the source, chain 1 of 2): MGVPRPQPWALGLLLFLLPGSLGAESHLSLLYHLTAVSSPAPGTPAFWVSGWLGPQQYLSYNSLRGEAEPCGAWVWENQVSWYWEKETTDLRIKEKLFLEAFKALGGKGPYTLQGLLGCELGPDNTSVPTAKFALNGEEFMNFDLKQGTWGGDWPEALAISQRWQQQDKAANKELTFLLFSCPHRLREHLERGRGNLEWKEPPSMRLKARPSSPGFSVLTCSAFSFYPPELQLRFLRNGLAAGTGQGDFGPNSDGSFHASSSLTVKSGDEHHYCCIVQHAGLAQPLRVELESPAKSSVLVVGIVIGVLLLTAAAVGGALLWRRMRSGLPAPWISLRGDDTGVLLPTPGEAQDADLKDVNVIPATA
human FcRn (with beta2-microglobulin) (human), sequence (chain, as listed by the source, chain 2 of 2): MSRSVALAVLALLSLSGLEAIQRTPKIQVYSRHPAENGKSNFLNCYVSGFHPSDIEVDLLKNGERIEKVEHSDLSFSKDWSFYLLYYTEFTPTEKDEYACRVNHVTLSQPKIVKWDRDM

B1: IL6R-G1d/IL6R-L (IgG1) (antibody)
chain 1: not shown
chain 2: DIQMTQSPSSLSASVGDRVTITCRASQDISSYLNWYQQKPGKAPKLLIYYTSRLHSGVPSRFSGSGSGTDFTFTISSLQPEDIATYYCQQGNTLPYTFGQGTKVEIK
Take B1: the Kd was found to be 5300 nM in [1]; 2600 nM in assay [2]; 1000 nM in [3]; 2600 nM in [4]; 350 nM in [5]; 1000 nM in assay [6]. The dissociation constant (Kd) in assay [7] amounted to 670 nM; in [8], 2600 nM; in assay [9], 350 nM; in assay [10], 350 nM; in assay [11], 670 nM; in assay [12], 5300 nM. Moreover, the Kd in assay [13] was determined as 0.32 nM; in assay [14] it was 1000 nM; in [15], 670 nM; in assay [16] it was 0.32 nM; in [17], 0.32 nM.

B2: IL6R-B3/IL6R-L (antibody)
chain 1: not shown
chain 2: DIQMTQSPSSLSASVGDRVTITCRASQDISSYLNWYQQKPGKAPKLLIYYTSRLHSGVPSRFSGSGSGTDFTFTISSLQPEDIATYYCQQGNTLPYTFGQGTKVEIK
For the molecule B2, the Kd was 3100 nM in [2]; 1100 nM in [3]; 3100 nM in assay [4]; 1100 nM in assay [6]; 330 nM in assay [9]; 330 nM in assay [10]. Further, the Kd turned out to be 770 nM in [11], 0.42 nM in assay [13], 770 nM in assay [15] and 0.42 nM in [16].

B3: IgG1-F698 (antibody)
chain 1: QVQLQESGPGLVKPSETLSLTCAVSGHSISHDHAWSWVRQPPGEGLEWIGFISYSGITNYNPSLQGRVTISRDNSKNTLYLQMNSLRAEDTAVYYCARSLARTTAMDYWGEGTLVTVSSASTKGPSVFPLAPSSKSTSGGTAALGCLVKDYFPEPVTVSWNSGALTSGVHTFPAVLQSSGLYSLSSVVTVPSSSLGTQTYICNVNHKPSNTKVDKKVEPKSCDKTHTCPPCPAPELLGGPSVFLFPPKPKDTLYISRTPEVTCVVVDVSHEDPEVKFNWYVDGVEVHEAKTKPREEQYNSTYRVVSVLQVLHADWLNGKEYKCKVSNKALPAPIEKTISKAKGQPREPQVYTLPPSRDELTKNQVSLTCLVKGFYPSDIAVEWESNGQPENNYKTTPPVLDSDGSFFLYSKLTVDKSRWQQGNVFSCSVMHEALHYHYTQKSLSLSP
chain 2: not shown
As to B3, the dissociation constant (Kd) in assay [18] and in assay [19] was 22 nM in each case.

B4: F1326 (antibody)
chain 1: QVQLQESGPGLVKPSETLSLTCAVSGHSISHDHAWSWVRQPPGEGLEWIGFISYSGITNYNPSLQGRVTISRDNSKNTLYLQMNSLRAEDTAVYYCARSLARTTAMDYWGEGTLVTVSSASTKGPSVFPLAPSSKSTSGGTAALGCLVKDYFPEPVTVSWNSGALTSGVHTFPAVLQSSGLYSLSSVVTVPSSSLGTQTYICNVNHKPSNTKVDKKVEPKSCDKTHTCPPCPAPEAAGGPSVFLFPPKPKDVLYISRTPEVTCVVVDVSHEDPEVKFNWYVDGVEVHNAKTKPREEQYNSTYRVVSVLQPLHADWLNGKEYKCKVSNKALPAPIEKTISKAKGQPREPQVYTLPPSRDELTKNQVSLTCLVKGFYPSDIAVEWESNGQPENNYKTTPPVLDSDGSFFLYSKLTVDKSRWQQGNVFSCSVMHEALHYHVTQKSLSLSP
chain 2: not shown
As for B4, the Kd in [20] and in [21] was 11 nM in each case.

B5: F947 (antibody)
chain 1: QVQLQESGPGLVKPSETLSLTCAVSGHSISHDHAWSWVRQPPGEGLEWIGFISYSGITNYNPSLQGRVTISRDNSKNTLYLQMNSLRAEDTAVYYCARSLARTTAMDYWGEGTLVTVSSASTKGPSVFPLAPSSKSTSGGTAALGCLVKDYFPEPVTVSWNSGALTSGVHTFPAVLQSSGLYSLSSVVTVPSSSLGTQTYICNVNHKPSNTKVDKKVEPKSCDKTHTCPPCPAPELLGGPSVFLFPPKPKDVLYISRTPEVTCVVVDVSHEDPEVKFNWYVDGVEVHNAKTKPREEQYNSTYRVVSVLQPLHADWLNGKEYKCKVSNKALPAPIEKTISKAKGQPREPQVYTLPPSRDELTKNQVSLTCLVKGFYPSDIAVEWESNGQPENNYKTTPPVLDSDGSFFLYSKLTVDKSRWQQGNVFSCSVMHEALHYHVTQKSLSLSP
chain 2: not shown
On to B5, for which the Kd in [22], in assay [20] and in [21] was 11 nM each time.

B6: FH4-IgG1 (antibody, V domains shown)
VH: QVQLVQSGAEVKKPGSSVKVSCKASGGTFSSYAISWVRQAPGQGLEWMGGIIPIFGTANYAQKFQGRVTITADESTSTAYMELSSLRSEDTAVYYCARERDYYDSSGYYDAFDIWGQGTMVTVSS
VL: ETTVTQSPSFLSASVGDRVTITCITTTDIDDDMNWFQQEPGKAPKLLISEGNILRPGVPSRFSSSGYGTDFTLTISKLQPEDFATYYCLQSDNLPFTFGQGTKLEIKR
B6: the dissociation constant Kd was approximately 34000 nM in assay [23] and more than 34000 nM in [24].

B7: IgG4-F890 (antibody)
chain 1: QVQLQESGPGLVKPSETLSLTCAVSGHSISHDHAWSWVRQPPGEGLEWIGFISYSGITNYNPSLQGRVTISRDNSKNTLYLQMNSLRAEDTAVYYCARSLARTTAMDYWGEGTLVTVSSASTKGPSVFPLAPCSRSTSESTAALGCLVKDYFPEPVTVSWNSGALTSGVHTFPAVLQSSGLYSLSSVVTVPSSSLGTKTYTCNVDHKPSNTKVDKRVESKYGPPCPPCPAPEFLGGPSVFLFPPKPKDTLYISRTPEVTCVVVDVSQEDPEVQFNWYVDGVEVHNAKTKPREEQFNSTYRVVSVLTVLHQDWLNGKEYKCKVSNKGLPSSIEKTISKAKGQPREPQVYTLPPSQEEMTKNQVSLTCLVKGFYPSDIAVEWESNGQPENNYKTTPPVLDSDGSFFLYSRLTVDKSRWQEGNVFSCSVMHEALHYHVTQKSLSLSL
chain 2: not shown
For the molecule B7, binding in assay [25] was characterised by a dissociation constant (Kd) of 140 nM.

B8: 6RL#9-IgG1 (antibody, V domains shown)
VH: QVQLVQSGAEVKKPGASVKVSCKASGYTFTSYYMHWVRQAPGQGLEWMGIINPSGGSTSYAQKFQGRVTMTRDTSTSTVYMELSSLRSEDTAVYYCARDDPGGGEYYFDYWGQGTLVTVSS
VL: QSVLTQPPSVSGAPGQRVTISCTGSRSNMGAGYDVHWYQLLPGAAPKLLISHNTHRPSGVPDRFSGSKSGASASLAITGLQAEDEADYYCQSHDSSLSAVVFGGGTKLTVLS
Turning to B8, the Kd is approximately 31000 nM in assay [23] and more than 31000 nM in assay [24].

The record behind these values is US10618965 (dated 2020).
